According to patent US20210238298A1 (ALLIGATOR BIOSCIENCE, published 2021):

Molecular target: T1, Human OX40 (R&D systems, #3358_OX) (human, UniProt P43489 29-216)
T1 construct: Bought; Several catalogue numbers are given for it; also called human OX40 (R&D Systems, 3388-OX); OX40-Fc (R&D systems, #3358_OX); not shown: Fc part
T1 sequence: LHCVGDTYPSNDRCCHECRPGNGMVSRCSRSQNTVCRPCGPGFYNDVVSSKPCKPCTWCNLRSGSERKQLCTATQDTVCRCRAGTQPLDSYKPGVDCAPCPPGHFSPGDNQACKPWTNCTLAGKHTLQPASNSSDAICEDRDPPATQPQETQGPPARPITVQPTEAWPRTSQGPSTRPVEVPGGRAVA
Experiment: ELISA: human OX40 coated, goat anti-human kappa light chain HRP, luminescence
Procedure: ELISA plates were coated with human with CTLA-4 (BMS, Orencia) or human OX40 (R&D Systems, 3388-OX) at 0.4 or 0.5 μg/ml, respectively. The ELISA plates were washed with PBST and then blocked with PBST+2% BSA for 1h at room temperature and then washed again with PBST. The bispecific molecules were added in dilution series to the plates and incubated for 1h at room temperature. The ELISA plates were washed, and binding was detected using goat anti human kappa light chain HRP for 1 h at room temperature. SuperSignal Pico Luminescent was used as substrate and luminescence was measured using Fluostar Optima.

EC50 (read off the curve): ~0.2 nM
B1: anti-OX40 antibody 1168/1135 (antibody, V domains shown)
VH: EVQLLESGGGLVQPGGSLRLSCAASGFTFSGSSMSWVRQAPGKGLEWVSSISYYGGYTYYADSVKGRFTISRDNSKNTLYLQMNSLRAEDTAVYYCARYFPHYYFDYWGQGTLVTVSS
VL: not shown
notes: Tested as IgG
